In one experiment the target is pICln (UniProt P54105). In words: AUC.
In another experiment the target is PRMT5cat (human) (UniProt O14744). In words: AUC.

SmD3, sequence (P62318 whole entry): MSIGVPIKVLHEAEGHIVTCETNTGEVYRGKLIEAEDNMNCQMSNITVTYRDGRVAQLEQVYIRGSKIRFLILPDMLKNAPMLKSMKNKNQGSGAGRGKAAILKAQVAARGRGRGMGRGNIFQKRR
pICln, sequence (P54105 whole entry): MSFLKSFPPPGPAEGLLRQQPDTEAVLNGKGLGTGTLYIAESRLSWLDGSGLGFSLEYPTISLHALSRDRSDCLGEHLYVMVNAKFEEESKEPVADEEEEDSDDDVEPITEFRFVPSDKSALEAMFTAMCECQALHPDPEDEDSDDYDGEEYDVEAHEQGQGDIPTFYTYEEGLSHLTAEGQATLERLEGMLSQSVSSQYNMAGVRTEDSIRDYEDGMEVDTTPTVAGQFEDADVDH

A word on the stoichiometry N: it is a count of units in the complex or per binding partner. In the experiment with pICln, “SmD3 (from UniProt P62318 1-126) (natural protein)” gave a stoichiometry N of 1.

What is called Kd is the concentration at which binding is half-saturated. A higher Kd goes with weaker binding. As for “PRMT5cat (from UniProt O14744 296-637) (domain or fragment)”, in the experiment with PRMT5cat (human), the Kd turned out to be 20 µM and the stoichiometry N came to 2.

The values above are taken from publication PMC2755859.
